Measured values from US20050260733A1, “Proteases and uses thereof” (WYETH, priority 2004, published 2005).
Values belong to the molecule of their own block, whether it stands above or below them.

Tests used:
Assay type in all cases: biochemical
bovine aggrecan = bovine aggrecan (Bos taurus, UniProt P13608); assay: Competitive inhibition ELISA for aggrecanase activity (MAb AGG-C1); conditions: bovine aggrecan digested 16 h at 37° C.; for amount of enzyme required to generate 45% inhibition in the competitive inhibition ELISA: then MAb AGG-C1 added
Sequence of bovine aggrecan (P13608 17-2364): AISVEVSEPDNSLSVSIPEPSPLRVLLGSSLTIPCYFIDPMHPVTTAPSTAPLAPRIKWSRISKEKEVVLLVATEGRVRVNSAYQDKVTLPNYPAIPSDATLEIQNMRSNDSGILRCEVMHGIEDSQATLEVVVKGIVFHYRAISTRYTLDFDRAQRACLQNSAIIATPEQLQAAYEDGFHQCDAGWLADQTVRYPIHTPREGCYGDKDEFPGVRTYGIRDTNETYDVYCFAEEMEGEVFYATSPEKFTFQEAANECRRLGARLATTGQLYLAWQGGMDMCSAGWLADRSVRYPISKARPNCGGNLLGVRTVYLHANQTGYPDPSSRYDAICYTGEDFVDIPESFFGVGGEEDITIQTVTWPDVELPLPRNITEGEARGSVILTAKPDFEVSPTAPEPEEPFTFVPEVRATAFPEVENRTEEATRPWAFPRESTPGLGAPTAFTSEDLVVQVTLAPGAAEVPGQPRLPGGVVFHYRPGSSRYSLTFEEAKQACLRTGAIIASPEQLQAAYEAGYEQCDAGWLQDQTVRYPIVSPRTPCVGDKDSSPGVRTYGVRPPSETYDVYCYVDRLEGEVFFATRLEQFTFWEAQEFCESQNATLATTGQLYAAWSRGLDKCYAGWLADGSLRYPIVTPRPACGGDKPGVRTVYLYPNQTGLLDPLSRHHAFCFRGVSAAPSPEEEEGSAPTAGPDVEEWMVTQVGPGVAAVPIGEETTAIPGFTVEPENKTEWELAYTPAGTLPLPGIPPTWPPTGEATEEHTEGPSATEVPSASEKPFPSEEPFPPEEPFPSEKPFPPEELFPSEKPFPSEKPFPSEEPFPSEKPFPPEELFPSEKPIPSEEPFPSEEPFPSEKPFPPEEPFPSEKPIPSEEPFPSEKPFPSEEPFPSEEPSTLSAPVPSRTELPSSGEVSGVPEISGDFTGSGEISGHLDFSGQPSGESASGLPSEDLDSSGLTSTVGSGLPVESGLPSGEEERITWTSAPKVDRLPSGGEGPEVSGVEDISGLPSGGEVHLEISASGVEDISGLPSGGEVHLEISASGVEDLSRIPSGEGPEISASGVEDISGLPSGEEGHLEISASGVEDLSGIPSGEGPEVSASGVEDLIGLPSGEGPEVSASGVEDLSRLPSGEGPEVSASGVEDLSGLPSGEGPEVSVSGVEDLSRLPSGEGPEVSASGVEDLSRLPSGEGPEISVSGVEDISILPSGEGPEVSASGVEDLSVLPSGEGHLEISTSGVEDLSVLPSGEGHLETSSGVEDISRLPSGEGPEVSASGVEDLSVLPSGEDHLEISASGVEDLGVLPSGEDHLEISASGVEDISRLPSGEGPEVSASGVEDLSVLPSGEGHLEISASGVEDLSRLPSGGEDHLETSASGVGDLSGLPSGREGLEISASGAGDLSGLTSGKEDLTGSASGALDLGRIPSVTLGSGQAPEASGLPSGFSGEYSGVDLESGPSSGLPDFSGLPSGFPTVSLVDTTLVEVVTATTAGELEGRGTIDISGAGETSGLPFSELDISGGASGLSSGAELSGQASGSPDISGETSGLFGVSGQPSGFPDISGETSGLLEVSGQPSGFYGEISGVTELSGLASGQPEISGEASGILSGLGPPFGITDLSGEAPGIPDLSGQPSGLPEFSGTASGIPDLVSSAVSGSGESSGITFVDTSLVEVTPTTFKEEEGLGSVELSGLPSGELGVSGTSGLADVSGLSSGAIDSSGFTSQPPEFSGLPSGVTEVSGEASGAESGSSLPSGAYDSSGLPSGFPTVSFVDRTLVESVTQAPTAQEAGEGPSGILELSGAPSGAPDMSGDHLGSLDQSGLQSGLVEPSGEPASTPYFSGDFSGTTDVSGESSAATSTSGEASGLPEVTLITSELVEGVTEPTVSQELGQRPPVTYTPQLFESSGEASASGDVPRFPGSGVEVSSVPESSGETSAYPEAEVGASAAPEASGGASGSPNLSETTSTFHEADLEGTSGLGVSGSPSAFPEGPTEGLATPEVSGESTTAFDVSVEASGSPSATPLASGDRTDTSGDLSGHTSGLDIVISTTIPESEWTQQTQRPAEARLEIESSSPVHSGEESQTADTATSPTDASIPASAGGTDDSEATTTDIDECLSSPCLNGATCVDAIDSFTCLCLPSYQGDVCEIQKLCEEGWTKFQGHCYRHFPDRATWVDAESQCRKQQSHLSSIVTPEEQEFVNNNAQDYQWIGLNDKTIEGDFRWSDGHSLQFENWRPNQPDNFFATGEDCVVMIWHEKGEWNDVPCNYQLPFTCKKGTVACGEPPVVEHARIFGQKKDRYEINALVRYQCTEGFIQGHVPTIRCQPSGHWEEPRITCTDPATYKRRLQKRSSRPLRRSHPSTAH
Protocol: Streptavidin-coated microtiter plates (Pierce, Rockford, Ill.) were coated with N-terminally biotinylated peptide aggc1 (b-aggc1) by incubating each well with 100 μl of b-aggc1 (100 ng/ml) for 1 h at room temperature. After washing 4 times with phosphate-buffered saline containing 0.01% Tween-20 (PBS-Tween), wells were blocked for 1 h at room temperature with 100 μl of PBS-Tween containing 2% BSA, followed by 4 washes with PBS-Tween.
In order to validate the neoepitope nature of MAb AGG-C1, competition mixtures (100 μl) comprised of MAb AGG-C1 (0.04 μg/ml) and 1.0-1000 nmol/ml of the synthetic peptides GGLPLPRNITEGE (SEQ ID NO:22), GGLPLPRNITEGE ARGSVILTVK-CONH2 (SEQ ID NO:23), undigested aggrecan, or ADAMTS-4 digested aggrecan were preincubated for 1 h at room temperature. Mixtures were then transferred to b-aggc1 coated wells. After a further incubation for 1 h at room temperature, the plates were washed 4 times with PBS-Tween then incubated for 1 h at room temperature with 100 μl of peroxidase-conjugated secondary goat anti-mouse IgG (1:10,000). Following 4 final washes with PBS-Tween, the wells were incubated with TMB 1 component microwell peroxidase substrate (BioFX Laboratories, Owings Mills, Md.). Color development was terminated by the addition of 0.18 M H2SO4, and the absorbance was monitored spectrophotometrically at 450 nm.
For the generation of a standard curve, bovine aggrecan (25 μg in 50 μl) was digested with ADAMTS-4 (0.001 ng-5 ng) for 16 h at 37° C. MAb AGG-C1 was then added to each digest (final antibody concentration of 0.04 μg/ml) and these mixtures were preincubated for 1 h at room temperature, followed by transfer to b-aggc1 coated plates and completion of the ELISA.
The standard curve was generated by incubating bovine aggrecan with increasing amounts of recombinant ADAMTS-4 for 16 h at 37° C. followed by addition of MAb AGG-C1 to each digest. Similar assays were performed to estimate the relative aggrecanase activity of ADAMTS-8.

α-2 macroglobulin = molecular target: T1, α-2 macroglobulin (Homo sapiens, UniProt P01023); assay: α2-macroglobulin assay of proteolytic activity; conditions: purified recombinant protein
T1 sequence (P01023 24-1474): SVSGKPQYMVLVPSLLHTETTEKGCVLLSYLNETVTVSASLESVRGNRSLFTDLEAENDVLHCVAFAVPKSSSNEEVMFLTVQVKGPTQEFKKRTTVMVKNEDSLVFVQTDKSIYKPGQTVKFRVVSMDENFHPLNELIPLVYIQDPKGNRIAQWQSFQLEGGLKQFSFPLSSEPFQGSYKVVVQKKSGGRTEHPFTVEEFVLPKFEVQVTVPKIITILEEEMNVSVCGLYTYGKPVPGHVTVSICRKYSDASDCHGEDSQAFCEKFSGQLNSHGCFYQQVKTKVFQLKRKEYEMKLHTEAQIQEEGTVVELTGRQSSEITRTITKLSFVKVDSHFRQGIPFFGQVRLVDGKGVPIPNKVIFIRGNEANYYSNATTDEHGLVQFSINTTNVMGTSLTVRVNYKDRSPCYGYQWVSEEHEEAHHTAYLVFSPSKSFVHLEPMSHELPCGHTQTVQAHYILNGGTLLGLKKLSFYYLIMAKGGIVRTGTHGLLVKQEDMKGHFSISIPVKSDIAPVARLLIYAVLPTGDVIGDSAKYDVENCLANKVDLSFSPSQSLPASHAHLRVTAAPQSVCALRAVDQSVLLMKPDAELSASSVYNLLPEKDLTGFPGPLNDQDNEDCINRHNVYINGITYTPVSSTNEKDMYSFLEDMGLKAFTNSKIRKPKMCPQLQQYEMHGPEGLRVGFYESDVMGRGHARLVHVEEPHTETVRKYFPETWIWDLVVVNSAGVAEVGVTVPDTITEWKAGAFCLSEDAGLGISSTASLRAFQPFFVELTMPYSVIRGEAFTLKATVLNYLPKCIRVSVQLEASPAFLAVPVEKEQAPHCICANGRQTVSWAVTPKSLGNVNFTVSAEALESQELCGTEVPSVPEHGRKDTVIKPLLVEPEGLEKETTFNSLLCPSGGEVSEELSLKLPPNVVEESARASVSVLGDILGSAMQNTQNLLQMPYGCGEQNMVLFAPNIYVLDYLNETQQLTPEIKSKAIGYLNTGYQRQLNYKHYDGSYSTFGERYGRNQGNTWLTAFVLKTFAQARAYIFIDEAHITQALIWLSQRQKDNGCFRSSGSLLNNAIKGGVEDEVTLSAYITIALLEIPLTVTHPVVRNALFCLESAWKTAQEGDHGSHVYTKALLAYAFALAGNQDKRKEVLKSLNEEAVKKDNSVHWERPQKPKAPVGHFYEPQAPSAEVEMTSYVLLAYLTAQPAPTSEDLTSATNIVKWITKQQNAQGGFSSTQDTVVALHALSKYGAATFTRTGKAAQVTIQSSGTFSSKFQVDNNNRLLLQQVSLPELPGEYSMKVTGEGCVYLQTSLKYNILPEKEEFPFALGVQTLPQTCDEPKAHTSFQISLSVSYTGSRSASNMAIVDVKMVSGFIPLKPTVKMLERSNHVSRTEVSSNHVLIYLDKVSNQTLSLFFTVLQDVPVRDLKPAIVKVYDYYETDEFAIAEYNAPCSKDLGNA

[1] = molecular target: T2, Bovine articular cartilage aggrecan (Glu373-Ala374 bond) (Bos taurus, UniProt P13608); assay: Western blotting of enzyme-digested aggrecan with neoepitope antibodies (MAb BC-3, MAb AGG-C1, MAb BC-14)
T2 construct: Bovine articular cartilage aggrecan was incubated with purified ADAMTS-8 or ADAMTS-4; from tissue; host or cells: bovine articular cartilage
T2 sequence (P13608 17-2364): as the sequence (P13608 17-2364) above
Protocol: Detailed procedures for Western blot analyses are set forth below. Bovine articular cartilage aggrecan was incubated with purified ADAMTS-8 or ADAMTS-4 for 16 h at 37° C. in 50 mM Tris, pH 7.3, containing 100 mM NaCl and 5 mM CaCl2. Digestion products were deglycosylated by incubation for 2 h at 37° C. in the presence of chondroitinase ABC (Seikagaku America, Falmouth, Mass.; 1 mU/μg aggrecan), keratanase (Seikagaku; 1 mU/μg aggrecan) and keratanase II (Seikagaku; 0.02 mU/μg aggrecan). Digestion products were separated on 4-12% Bis-Tris NuPAGE SDS PAGE gels (Invitrogen, Carlsbad, Calif.) and then electrophoretically transferred to nitrocellulose. Immunoreactive products were detected by Western blotting with MAb AGG-C1 (0.04 μg/ml) or MAb BC-3 (Caterson, et al., supra). Alkaline-phosphatase-conjugated secondary goat anti-mouse IgG (Promega Corp., Madison, Wis.; 1:7500) was subsequently incubated with the membranes, and NBT/BCIP substrate (Promega) was used to visualize immunoreactive bands. All antibody incubations were performed for 1 h at room temperature, and the immunoblots were incubated with the substrate for 5-15 min at room temperature to achieve optimum color development.

amount of enzyme required to generate aggrecan cleavage product giving 45% inhibition in the competitive inhibition ELISA (bovine aggrecan; FIG. 7 standard curve): approximately 1 ng | amount of enzyme required to generate 45% inhibition in the competitive inhibition ELISA (bovine aggrecan): 0.0135 pM
B1: ADAMTS-4: Recombinant ADAMTS-4 used for comparison, spontaneously truncated and lacking the spacer domain (protein)
chain: FASLSRFVETLVVADDKMAAFHGAGLKRYLLTVMAAAAKAFKHPSIRNPVSLVVTRLVILGSGEEGPQVGPSAAQTLRSFCAWQRGLNTPEDSDPDHFDTAILFTRQDLCGVSTCDTLGMADVGTVCDPARSCAIVEDDGLQSAFTAAHELGHVFNMLHDNSKPCISLNGPLSTSRHVMAPVMAHVDPEEPWSPCSARFITDFLDNGYGHCLLDKPEAPLHLPVTFPGKDYDADRQCQLTFGPDSRHCPQLPPPCAALWCSGHLNGHAMCQTKHSPWADGTPCGPAQACMGGRCLHMDQLQDFNIPQAGGWGPWGPWGDCSRTCGGGVQFSSRDCTRPVPRNGGKYCEGRRTRFRSCNTEDCPTGSALTFREEQCAAYNHRTDLFKSFPGPMDWVPRYTGVAPQDQCKLTCQAQALGYYYVLEPRVVDGTPCSPDSSSVCVQGRCIHAGCDRIIGSKKKFDKCMVCGGDGSGCSKQSGSFRK

proteolytic activity by α2-macroglobulin assay (α-2 macroglobulin): active
B2: C-terminally truncated ADAMTS-8: Recombinant ADAMTS-8 in which the C-terminal thrombospondin and spacer domains were deleted (protein)
chain: MLPAPAAPRWPPLLLLLLLLLLPLARGAPARPAAGGQASELVVPTRLPGSAGELALHLSAFGKGFVLRLAPDDSFLAPEFKIERLGGSGRATGGERGLRGCFFSGTVNGEPESLAAVSLCRGLSGSFLLDGEEFTIQPQGAGGSLAQPHRLQRWGPAGARPLPRGPEWEVETGEGQRQERGDHQEDSEEESQEEEAEGASEPPPPLGATSRTKRFVSEARFVETLLVADASMAAFYGADLQNHILTLMSVAARIYKHPSIKNSINLMVVKVLIVEDEKWGPEVSDNGGLTLRNFCNWQRRFNQPSDRHPEHYDTAILLTRQNFCGQEGLCDTLGVADIGTICDPNKSCSVIEDEGLQAAHTLAHELGHVLSMPHDDSKPCTRLFGPMGKHHVMAPLFVHLNQTLPWSPCSAMYLTELLDGGHGDCLLDAPRAALPLPTGLPGRMALYQLDQQCRQIFGPDFRHCPNTSAQDVCAQLWCHTDGAEPLCHTKNGSLPWADGTPCGPGHLCSEGSCLPEEEVERPKPVADGGWAPWGPWGECSRTCGGGVQFSHRECKDPEPQNGGRYCLGRRAKYQSCHTEECPPDGKSFREQQCEKYNAYNYTDMDGNLLQWVPKYAGVSPRDRCKLFCRARGRSEFKVFEAKVIDGTLCGPETLAICVRGQCVKAGCDHVVDSPRKLDKCGVCGGKGNSCRKVSGSLTPTNYGYNDIVTIPAGATNIDVKQRSHPGVQNDGNYLALKTADGQYLLNGNLAISAIEQDILVKGTILKYSGSIATLERLQSFRPLPEPLTVQLLTVPGEVFPPKVKYTFFVPNDVDFSMQSSKERATTNIIQPLLHAQWVLGDWSECSSTCGAGWQRRTVECRDPSGQASATCNKALKPEDAKPCESQLCPL
activity on aggrecan substrate compared with full-length recombinant ADAMTS-8 ([1]; AGG-C1 Western blotting): no more active than full-length recombinant ADAMTS-8

amount of enzyme required to generate 45% inhibition in the competitive inhibition ELISA (bovine aggrecan): 46.6 ± 4.8 pM | proteolytic activity by α2-macroglobulin assay (α-2 macroglobulin): verified | efficiency of cleaving cartilage aggrecan at Glu373-Ala374 compared with ADAMTS-4 ([1]; same Western blots, FIGS. 6A-6C): less efficient than ADAMTS4
B3: ADAMTS-8: Recombinant human full-length ADAMTS-8 with carboxy-terminal Strep-tag expressed in CHO cells; elution fraction holds pro- and mature forms (protein)
chain: RFVSEARFVETLLVADASMAAFYGADLQNHILTLMSVAARIYKHPSIKNSINLMVVKVLIVEDEKWGPEVSDNGGLTLRNFCNWQRRFNQPSDRHPEHYDTAILLTRQNFCGQEGLCDTLGVADIGTICDPNKSCSVIEDEGLQAAHTLAHELGHVLSMPHDDSKPCTRLFGPMGKHHVMAPLFVHLNQTLPWSPCSAMYLTELLDGGHGDCLLDAPRAALPLPTGLPGRMALYQLDQQCRQIFGPDFRHCPNTSAQDVCAQLWCHTDGAEPLCHTKNGSLPWADGTPCGPGHLCSEGSCLPEEEVERPKPVADGGWAPWGPWGECSRTCGGGVQFSHRECKDPEPQNGGRYCLGRRAKYQSCHTEECPPDGKSFREQQCEKYNAYNYTDMDGNLLQWVPKYAGVSPRDRCKLFCRARGRSEFKVFEAKVIDGTLCGPETLAICVRGQCVKAGCDHVVDSPRKLDKCGVCGGKGNSCRKVSGSLTPTNYGYNDIVTIPAGATNIDVKQRSHPGVQNDGNYLALKTADGQYLLNGNLAISAIEQDILVKGTILKYSGSIATLERLQSFRPLPEPLTVQLLTVPGEVFPPKVKYTFFVPNDVDFSMQSSKERATTNIIQPLLHAQWVLGDWSECSSTCGAGWQRRTVECRDPSGQASATCNKALKPEDAKPCESQLCPLGSGSAWSHPQFEK
cleavage site specificity of aggrecanase activity ([1]; BC-3 and AGG-C1 Western blots): specific for the Glu^373-Ala^374 site | MAb BC-3 immunoreactive bands (cleavage at Glu373-Ala374) ([1]; MAb BC-3 Western blot, 16 h at 37° C.): increased in intensity with increasing amounts
